“And” between values parts separate entries of the source, which are not always exact repeats. Equal values may be shown once.
Legend:
[1] = test system: liposomes and cellular membranes; assay type: cell-based
Text: Toxicity is one of the most critical issues in the selection of any delivery agent. For example, the use of pore-forming membrane peptides as delivery agents is complicated by the toxicity associated with the formation of pores in cellular membranes in vivo.

[2] = in vivo
Text: If the peptide sequence were made more hydrophobic, tighter binding to red blood cells and epithelial cells and more aggregation in solution, and slower clearance and reduced bioavailability would occur. Making the peptide less hydrophobic accelerates clearance and prevents the peptide from finding its targets. Therefore, fine tuning of the solubility is an important property to optimize pHLIP performance in vivo.

[3] = pH-dependent membrane insertion of pHLIP peptides; assay type: physicochemical
Text: Peptide folding and membrane insertion are driven by a drop of pH from neutral or high (>7.4) to slightly acidic (7.0-6.5 and less) pHs. […] In contrast, all pore forming peptides first form aggregates on the membrane surface and then “fall” into membrane and form pores.
The transmembrane (TM) part of exemplary pHLIP peptides contain two Asp residues. At neutral pH these charged residues enhance peptide solubility and serve as anchors keeping the peptide at the surface of membrane, thereby preventing pHLIP partitioning into the hydrophobic membrane bilayer. A reduction of pH induces protonation of Asp residues, and as a result, the overall hydrophobicity of the peptide increases, enhancing the affinity of the peptide for the lipid bilayer core and triggering peptide folding and insertion. The replacement of the key Asp residues by Lys, Ala or Asn leads to the loss of peptide of pH-dependent membrane insertion, as measured in liposomes, red blood cells and confirmed by in vivo fluorescence imaging. […] The Ala substitutions yield a peptide that aggregates in solution (but de-aggregates when it becomes diluted in bodily fluids or tissue upon administration to a subject), while the Lys and Asn substitutions give peptides that are too polar to insert either at neutral or low pH. […]

acidic tissues, tumors = assay: In vivo fluorescence imaging of tissue and tumor targeting; parameters: species or system mice and rats
Text: The pH-dependent interaction of pHLIP with membranes allows selectivity in the targeting of acidic (less than pH 7.0) diseased tissue. As noted above, acidity and hypoxia are considered as universal cancer biomarkers, and pHLIP is used as an acidity-targeting probe. Besides cancer, many other pathological states, such as inflammation, ischemia, stroke, arthritis and others are characterized by acidity in the extracellular space, which may broaden the potential applications of pHLIP. […] In addition to fluorescence imaging, PET (positron emission tomography) imaging of the acidic environment in human prostate tumors was performed using ^64Cu-DOTA conjugated to pHLIP. […] To manipulate the acidity of tissues, a buffer solution is administered to the subject systemically or local to the area in which a pH change is desired. In this manner, pHLIP-liposome-mediated delivery of a cargo compound is regulated, e.g., reduced or stopped. For example, administering bicarbonated water, which increases tissue pH, results in a reduction of tumor targeting by pHLIP.
The transmembrane (TM) part of exemplary pHLIP peptides contain two Asp residues. […] The replacement of the key Asp residues by Lys, Ala or Asn leads to the loss of peptide of pH-dependent membrane insertion, as measured in liposomes, red blood cells and confirmed by in vivo fluorescence imaging. […]

[4] = Oligomeric state and aggregation of pHLIP in solution and on membranes; assay type: physicochemical
Protocol: Poor solubility due to aggregation is a typical property of membrane peptides, which has complicated studies and applications. Isolated or purified pHLIP, as any membrane peptide, also has a tendency to aggregate, especially at high concentrations and/or low pH. However, in aqueous solution at neutral pH pHLIP exists as a monomer at concentrations less than 30 μg/mL (˜7.0 μM), as studied by fluorescence and CD spectroscopy measurements, size exclusion chromatography coupled with “on-line” laser light scattering, ultraviolet and refractive index detection (SEC-LS/UV/RI) and analytical ultracentrifugation experiments. When the solubility of the peptide is compromised as a result of mutations, the affinity of the peptide for a membrane and its overall conformational properties change. Thus, studies were undertaken to design pHLIP peptides that are optimized for clinical diagnostic and therapeutic use.
The oligomeric state of the peptide on the surface of a membrane (state II) and inserted into the lipid bilayer (state III) were evaluated by FRET performed with two different donor-acceptor probes attached to the N-terminus of the peptide.

| Substance | cellular toxicity [1] | membrane leakage [1] | circulation in the blood [2] | apparent pK of insertion [3] | targeting of acidic tissue and tumors (acidic tissues, tumors) | oligomeric state in states I, II and III [4] | concentration at which pHLIP exists as a monomer ([4]; aqueous solution at neutral pH) |
| --- | --- | --- | --- | --- | --- | --- | --- |
| pHLIP: water-soluble polypeptide based on the bacteriorhodopsin C helix, e.g. SEQ ID NO: 4 (ACEQNPIYWARYADWLFTTPLLLLDLALLVDADET; pHLIP variant) | no cellular toxicity | does not lead to membrane leakage | several hours | 6.0 | can target acidic tissues | monomer | less than 30 μg/mL and ~7.0 μM |
| K-pHLIP (ACEQNPIYWARYAKWLFTTPLLLLKLALLVDADEGTG; pHLIP variant) | – | – | – | – | does not demonstrate tumor targeting | – | – |

From US11857509B2, “Liposome compositions and methods of use thereof” (University of Rhode Island Board of Trustees, priority 2010, dated 2024)
